Assays:
Laminin 111 [1] = biological target: Laminin 111 (Mus musculus, UniProt P19137, shortened LARGE-glycan (LargeKD myotubes), Ca2+); test: solid-phase binding assay
Laminin 111 [2] = biological target: Laminin 111 (Mus musculus, UniProt P19137, LARGE-glycan (control myotubes), Ca2+); test: solid-phase binding assay

Kd (Laminin 111 [1]): 4.75 nM
Kd (Laminin 111 [2]): 2.93 nM
B1: alpha-dystroglycan (protein)
chain: HWPSEPSEAVRDWKNQLEASMHSVLSDFQEAVPTVVGIPDGTAVVGRSFRVSIPTDLIASSGEIIKVSAAGKEALPSWLHWDPHSHILEGLPLDTDKGVHYISVSAARLGANGSHVPQTSSVFSIEVYPEDHNEPQSVRAASSDPGEVVPSACAADEPVTVLTVILDADLTKMTPKQRIDLLNRMQSFSEVELHNMKLVPVVNNRLFDMSAFMAGPGNAKKVVENGALLSWKLGCSLNQNSVPDIRGVETPAREGAMSAQLGYPVVGWHIANKKPTLPKRLRRQIHATPTPVTAIGPPTTAIQEPPSRIVPTPTSPAIAPPTETMAPPVRDPVPGKPTVTIRTRGAIIQTPTLGPIQPTRVSEAGTTVPGQIRPTLTIPGYVEPTAVITPPTTTTKKPRVSTPKPATPSTDSSTTTTRRPTKKPRTPRPVPRVTTKAPITRLETASPPTRIRTTTSGVPRGGEPNQRPELKNHIDRVDAWVGTYFEVKIPSDTFYDNEDTTTDKLKLTLKLREQQLVGEKSWVQFNSNSQLMYGLPDSSHVGKHEYFMHATDKGGLSAVDAFEIHVHKRPQGDKAPARFKARLAGDPAPVVNDIHKKIALVKKLAFAFGDRNCSSITLQNITRG

Reference: paper PMC3891507 (2014)
